The results in this text go back to article PMC11388181.

A short description of data set [1]: Western blot, B7-H5/GAPDH, HEK293 lysates. As to conditions: glycan lost; control: wild type.
Data set [2] can be described thus: Confocal immunofluorescence, HEK293. As to conditions: glycan lost; control: wild type.

For B7-H5/VISTA: N49A, in data set [1], the expression_or_secretion result is recorded as “no change”. Also, the localisation_or_trafficking entry in data set [2] was “no change”.
In the case of B7-H5/VISTA: N91A, in data set [1], the expression_or_secretion entry is listed as “no change”. The localisation_or_trafficking result in data set [2] was “no change”.
In the case of B7-H5/VISTA: N108A, the expression_or_secretion result in data set [1] is reported as “no change”. Besides, the localisation_or_trafficking entry in data set [2] is reported as “no change”.
Take B7-H5/VISTA: N128A: the expression_or_secretion result in data set [1] is given as “no change”. Moreover, in data set [2], the localisation_or_trafficking result is “no change”.
For the substance B7-H5/VISTA: N135A, the expression_or_secretion result in data set [1] is on record as “no change”. Moreover, the localisation_or_trafficking entry in data set [2] is “no change”.
